PMC5374433, “Theranostic Value of Multimers: Lessons Learned from Trimerization of Neurotensin Receptor Ligands and Other Targeting Vectors” (Pharmaceuticals, 2017)
Like-named read-outs stand apart in the source and are kept apart here.

Columns and labels:
[1] = tested on: HT29 xenografted nude mice; test: Biodistribution in HT29 tumor-bearing nude mice; type: in vivo, mouse
Method: (§1) For in vivo evaluation of [^68Ga]Ga-TRAP(NT4)3 the NTS1-positive human colorectal adenocarcinoma cells HT29 were injected in nude mice to generate a subcutaneous tumor. The radioligand was injected in the tail vein of the mice and the biodistribution was determined 60 and 90 min after tracer injection. […] The clearance rate of [^68Ga]Ga-TRAP(NT4)3 in these excretion organs was apparently low. […] (1.44 %ID/g). Blocking experiments were performed to confirm the specificity of the tumor uptake of [^68Ga]Ga-TRAP(NT4)3 in vivo. Therefore, TRAP(NT4)3 (20 nmol) or NT4 (100 nmol) were co-injected together with the radiotracer to define the nonspecific uptake of the tracer in the tumor region. […] Apart from the intestine, the uptake in all other organs was not affected by the blocking substances (Table 2), confirming the receptor-mediated uptake of [^68Ga]Ga-TRAP(NT4)3, as it was reported that NTS receptors are expressed in the small intestine of mice.
(§2) All animal experiments were performed in compliance with the protocols approved by the local Animal Protection Authorities (Regierung Mittelfranken, Germany, no. 54-2532.1-15/08). Female athymic NMRI nude mice (nu/nu) were obtained from Harlan Winkelmann GmbH (Borchen, Germany) at four weeks of age and were kept under standard conditions (12 h light/dark) with food and water available ad libitum for at least five weeks. HT29 tumors were generated as described before.
(§3) HT29 xenografted nude mice were injected with [^68Ga]Ga-TRAP(NT4)3 into a tail vein (2.5–7.5 MBq/mouse). The animals were killed by cervical dislocation 60 or 90 min p.i. The tumors, other tissues (lung, liver, kidneys, heart, spleen, brain, muscle, femur, and intestine) and blood were removed and weighed. Radioactivity of the samples was measured using a γ-counter and expressed as the percentage of injected dose per gram of tissue (%ID/g), from which tumor-to-blood ratios were calculated. Blocking experiments were carried out by co-injecting randomly chosen mice with TRAP(NT4)3 (20 nmol/mouse) or NT4 (100 nmol/mouse) together with the radiotracer. These mice were killed by cervical dislocation at 60 min p.i., and organs and tissue were removed, weighed, and counted as described above.

[2] = Biodistribution in HT29 tumor-bearing nude mice; type: in vivo, mouse; conditions: mouse; for tissue uptake at 1.5 h / tissue uptake at 1 h: in vivo
Method: as §1, §2, §3

[3] = type: in vivo; conditions: mouse blood sample taken 5 min after injection, HPLC
Method: The in vivo stability of [^68Ga]Ga-TRAP(NT4)3 was measured from a blood sample taken 5 min after injection in mice. […] Unfortunately, it was not possible to determine the stability at later time points due to the low amount of residual radioactivity in the blood.

[4] = target: human NTS1 (Homo sapiens, UniProt P30989); test: Competitive radioligand binding assay, NTS1; conditions: Ki (NTS1, nM), membranes of CHO cells stably expressing human NTS1; mean ± SEM, 4-8 experiments
Method: Receptor binding data were performed as described previously. […] NTS2 binding was conducted using homogenates of membranes from HEK 293 cells transiently transfected with pcDNA3.1 carrying the human NTS2 gene (Missouri S&T cDNA Resource Center (UMR), Rolla, MO, USA) using the Mirus TransIT-293 transfection reagent (MoBiTec, Göttingen, Germany) according to the manufacturer’s protocol.
Data analysis of the competition binding curves from the radioligand displacement experiments was done by non-linear regression analysis when applying the algorithms of the PRISM 6.0 software package (GraphPad Software, San Diego, CA, USA). EC50 values were derived from each dose-response curve and were subsequently transformed into the corresponding Ki values by applying the equation of Cheng and Prusoff. Mean Ki values and the corresponding S.E.M. values (standard error of the mean) were determined by analyzing four to eight individual experiments.

[5] = Small animal PET imaging of HT29 tumor-bearing mice; conditions: mouse, in vivo, molar radioactivities of more than 20 MBq/nmol, read-out: highest tumor uptake values by PET
Method: The highest tumor uptake values of approximately 2 %ID/g were determined with molar radioactivities of more than 20 MBq/nmol. […] Considering all eight mice, which were repeatedly measured by PET with varying molar radioactivities of [^68Ga]Ga-TRAP(NT4)3, a good correlation of molar radioactivity and tumor uptake could be observed (Figure 4b; r = 0.713, Spearman correlation, p < 0.0004).
PET scans and image analysis were performed using a small-animal PET scanner (Inveon, Siemens Medical Solutions, Erlangen, Germany). About 1.5–4 MBq of [^68Ga]Ga-TRAP(NT4)3 with varying amounts of 0.02–10 nmol TRAP(NT4)3 were intravenously injected into the mice under isoflurane anesthesia (4%). Animals were subjected to a 60 min dynamic scan starting with tracer injection. After iterative maximum a posteriori image reconstruction of the decay- and attenuation-corrected images, regions of interest (ROIs) were drawn over the tumor. The radioactivity concentration within the tumor region was obtained from the mean value within the multiple ROIs and then converted to SUV relative to the injected dose and the individual body weight.

Chain of human NTS1 (P30989 whole entry): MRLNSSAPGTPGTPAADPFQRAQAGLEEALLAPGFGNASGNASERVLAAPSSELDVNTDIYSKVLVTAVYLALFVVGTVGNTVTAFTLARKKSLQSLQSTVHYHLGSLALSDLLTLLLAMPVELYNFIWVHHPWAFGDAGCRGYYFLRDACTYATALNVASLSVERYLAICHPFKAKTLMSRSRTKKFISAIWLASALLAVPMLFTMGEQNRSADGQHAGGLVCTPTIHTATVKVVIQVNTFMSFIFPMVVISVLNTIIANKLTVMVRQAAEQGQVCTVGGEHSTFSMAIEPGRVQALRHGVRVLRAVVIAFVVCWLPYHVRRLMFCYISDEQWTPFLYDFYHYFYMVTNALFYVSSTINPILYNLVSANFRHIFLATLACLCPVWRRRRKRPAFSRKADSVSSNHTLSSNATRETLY

SMILES: CC(C)C[C@H](NC(=O)[C@@H](NC(=O)[C@H](Cc1ccc(O)cc1)NC(=O)[C@@H]1CCCN1C(=O)[C@H](CCCCN)NC(=O)CN(CCCCN)C(=O)[C@@H](N)CCCCn1cc(CNC(=O)CCP(=O)(O)CN2CCN(CP(=O)(O)CCC(=O)NCc3cn(CCCC[C@H](N)C(=O)N(CCCCN)CC(=O)N[C@@H](CCCCN)C(=O)N4CCC[C@H]4C(=O)N[C@@H](Cc4ccc(O)cc4)C(=O)N[C@H](C(=O)N[C@@H](CC(C)C)C(=O)O)C(C)(C)C)nn3)CCN(CP(=O)(O)CCC(=O)NCc3cn(CCCC[C@H](N)C(=O)N(CCCCN)CC(=O)N[C@@H](CCCCN)C(=O)N4CCC[C@H]4C(=O)N[C@@H](Cc4ccc(O)cc4)C(=O)N[C@H](C(=O)N[C@@H](CC(C)C)C(=O)O)C(C)(C)C)nn3)CC2)nn1)C(C)(C)C)C(=O)O (single isomer, unassigned) [[^68Ga]Ga-TRAP(NT4)3, metal not drawn]
- HT29 tumor uptake ([1]; 60 min p.i.): 1.74 ± 0.21 %ID/g
- tumor uptake compared to monomeric analogs ([1]; HT29 tumor): two-fold
- tissue to tissue ratio at 1 h ([2]; female, athymic NMRI nude (nu/nu), HT29 tumor / blood, iv, total radioactivity, 60 min p.i.): 13
- tissue to tissue ratio at 1.5 h ([2]; female, athymic NMRI nude (nu/nu), HT29 tumor / blood, iv, total radioactivity, 90 min p.i.): 36
- SUV at 1 h ([2]; female, athymic NMRI nude (nu/nu), HT29 tumor, iv, total radioactivity, 60 min p.i., equals 1.7 %ID/g): ~0.7 SUV
- tissue uptake at 1.5 h ([2]; 60 and 90 min p.i., read-out: uptake in the liver): 11 to 12 %ID/g
- tissue uptake at 1.5 h ([2]; 60 and 90 min p.i., read-out: uptake values in the kidneys): 55 to 102 %ID/g
- tissue uptake at 1 h ([2]; 60 min p.i., blocking: co-injection of NT4 (100 nmol per mouse), read-out: HT29 tumor uptake): 0.6 ± 0.13 %ID/g
- tissue uptake at 1 h ([2]; 60 min p.i., blocking: co-injection of NT4 (100 nmol per mouse), read-out: blood uptake): 0.4 ± 0.01 %ID/g
- tissue uptake at 1 h ([2]; 60 min p.i., blocking: co-injection of NT4 (100 nmol per mouse), read-out: brain uptake): 0.07 ± 0.02 %ID/g
- tissue uptake at 1 h ([2]; 60 min p.i., blocking: co-injection of NT4 (100 nmol per mouse), read-out: femur uptake): 1.72 ± 0.12 %ID/g
- tissue uptake at 1 h ([2]; 60 min p.i., blocking: co-injection of NT4 (100 nmol per mouse), read-out: heart uptake): 0.45 ± 0.13 %ID/g
- tissue uptake at 1 h ([2]; 60 min p.i., blocking: co-injection of NT4 (100 nmol per mouse), read-out: intestine uptake): 0.49 ± 0.07 %ID/g
- tissue uptake at 1 h ([2]; 60 min p.i., blocking: co-injection of NT4 (100 nmol per mouse), read-out: kidney uptake): 99.9 ± 15.5 %ID/g
- tissue uptake at 1 h ([2]; 60 min p.i., blocking: co-injection of NT4 (100 nmol per mouse), read-out: liver uptake): 11.2 ± 2.27 %ID/g
- tissue uptake at 1 h ([2]; 60 min p.i., blocking: co-injection of NT4 (100 nmol per mouse), read-out: lung uptake): 6.06 ± 1.19 %ID/g
- tissue uptake at 1 h ([2]; 60 min p.i., blocking: co-injection of NT4 (100 nmol per mouse), read-out: muscle uptake): 0.16 ± 0.03 %ID/g
- tissue uptake at 1 h ([2]; 60 min p.i., blocking: co-injection of NT4 (100 nmol per mouse), read-out: spleen uptake): 3.75 ± 0.81 %ID/g
- tissue uptake at 1 h ([2]; 60 min p.i., blocking: co-injection of TRAP(NT4)3 (20 nmol per mouse), read-out: HT29 tumor uptake): 1.1 ± 0.2 %ID/g
- tissue uptake at 1 h ([2]; 60 min p.i., blocking: co-injection of TRAP(NT4)3 (20 nmol per mouse), read-out: blood uptake): 0.07 ± 0.01 %ID/g
- tissue uptake at 1 h ([2]; 60 min p.i., blocking: co-injection of TRAP(NT4)3 (20 nmol per mouse), read-out: brain uptake): 0.06 ± 0.07 %ID/g
- tissue uptake at 1 h ([2]; 60 min p.i., blocking: co-injection of TRAP(NT4)3 (20 nmol per mouse), read-out: femur uptake): 0.74 ± 0.14 %ID/g
- tissue uptake at 1 h ([2]; 60 min p.i., blocking: co-injection of TRAP(NT4)3 (20 nmol per mouse), read-out: heart uptake): 0.15 ± 0.11 %ID/g
- tissue uptake at 1 h ([2]; 60 min p.i., blocking: co-injection of TRAP(NT4)3 (20 nmol per mouse), read-out: intestine uptake): 0.49 ± 0.08 %ID/g
- tissue uptake at 1 h ([2]; 60 min p.i., blocking: co-injection of TRAP(NT4)3 (20 nmol per mouse), read-out: kidney uptake): 96.3 ± 8.83 %ID/g
- tissue uptake at 1 h ([2]; 60 min p.i., blocking: co-injection of TRAP(NT4)3 (20 nmol per mouse), read-out: liver uptake): 8.3 ± 0.87 %ID/g
- tissue uptake at 1 h ([2]; 60 min p.i., blocking: co-injection of TRAP(NT4)3 (20 nmol per mouse), read-out: lung uptake): 1.61 ± 0.42 %ID/g
- tissue uptake at 1 h ([2]; 60 min p.i., blocking: co-injection of TRAP(NT4)3 (20 nmol per mouse), read-out: muscle uptake): 0.1 ± 0.05 %ID/g
- tissue uptake at 1 h ([2]; 60 min p.i., blocking: co-injection of TRAP(NT4)3 (20 nmol per mouse), read-out: spleen uptake): 2.2 ± 0.39 %ID/g
- tissue uptake at 1 h ([2]; 60 min p.i., read-out: HT29 tumor uptake): 1.7 %ID/g
- tissue uptake at 1 h ([2]; 60 min p.i., read-out: blood uptake): 0.13 ± 0.02 %ID/g
- tissue uptake at 1 h ([2]; 60 min p.i., read-out: brain uptake): 0.04 ± 0.01 %ID/g
- tissue uptake at 1 h ([2]; 60 min p.i., read-out: femur uptake): 1.51 ± 0.12 %ID/g
- tissue uptake at 1 h ([2]; 60 min p.i., read-out: heart uptake): 0.13 ± 0.02 %ID/g
- tissue uptake at 1 h ([2]; 60 min p.i., read-out: intestine uptake): 1.5 ± 0.42 %ID/g
- tissue uptake at 1 h ([2]; 60 min p.i., read-out: kidney uptake): 94.5 ± 10.8 %ID/g
- tissue uptake at 1 h ([2]; 60 min p.i., read-out: liver uptake): 11.2 ± 0.3 %ID/g
- tissue uptake at 1 h ([2]; 60 min p.i., read-out: lung uptake): 2.76 ± 0.53 %ID/g
- tissue uptake at 1 h ([2]; 60 min p.i., read-out: muscle uptake): 0.09 ± 0.03 %ID/g
- tissue uptake at 1 h ([2]; 60 min p.i., read-out: spleen uptake): 3.72 ± 0.09 %ID/g
- tissue uptake at 1.5 h ([2]; 90 min p.i., read-out: HT29 tumor uptake): 1.44 ± 0.13 %ID/g
- tissue uptake at 1.5 h ([2]; 90 min p.i., read-out: blood uptake): 0.04 ± 0.02 %ID/g
- tissue uptake at 1.5 h ([2]; 90 min p.i., read-out: brain uptake): 0.02 ± 0.01 %ID/g
- tissue uptake at 1.5 h ([2]; 90 min p.i., read-out: femur uptake): 1.17 ± 0.21 %ID/g
- tissue uptake at 1.5 h ([2]; 90 min p.i., read-out: heart uptake): 0.35 ± 0.37 %ID/g
- tissue uptake at 1.5 h ([2]; 90 min p.i., read-out: intestine uptake): 1.31 ± 0.2 %ID/g
- tissue uptake at 1.5 h ([2]; 90 min p.i., read-out: kidney uptake): 102 ± 29.9 %ID/g
- tissue uptake at 1.5 h ([2]; 90 min p.i., read-out: liver uptake): 11.7 ± 0.48 %ID/g
- tissue uptake at 1.5 h ([2]; 90 min p.i., read-out: lung uptake): 2.37 ± 0.21 %ID/g
- tissue uptake at 1.5 h ([2]; 90 min p.i., read-out: muscle uptake): 0.11 ± 0.08 %ID/g
- tissue uptake at 1.5 h ([2]; 90 min p.i., read-out: spleen uptake): 3.45 ± 0.38 %ID/g
- formation of a more hydrophilic radiometabolite [3]: 8%
- Ki [4]: 0.1 nM
- tissue uptake [5]: ~2 %ID/g
